Data as given in publication PMC9477738, “PIF4 enhances DNA binding of CDF2 to co-regulate target gene expression and promote Arabidopsis hypocotyl cell elongation” (Nature Plants, 2022).
Numbering of substitutions follows the chain as printed.

B1: MBP-PIF4^bHLH (bHLH DNA-binding domain of PIF4 fused to N-terminal maltose binding protein) (domain or fragment, Arabidopsis thaliana, UniProt Q8W2F3 248-317, looked up)
chain: QRSGSNRRSRAAEVHNLSERRRRDRINERMKALQELIPHCSKTDKASILDEAIDYLKSLQLQLQVMWMGS
notes: codon-optimised for E. coli; also called PIF4 bHLH domain; PIF4^bHLH WT; source: E. coli ArcticExpress, purified (Ni-NTA, size-exclusion chromatography); not shown: MBP, N-terminal, kept
B2: MBP-PIF4^(bHLH (Mu3)) (PIF4 bHLH domain mutated in Interface 3 and Interface 4) (domain or fragment, Arabidopsis thaliana, UniProt Q8W2F3 248-317, looked up)
chain: B1 chain with E28A, R29A, K31A, Q34A, E35A, Q64A, W67A
notes: source: E. coli ArcticExpress, purified (Ni-NTA, size-exclusion chromatography); not shown: MBP, N-terminal, kept

Biological target: the molecule itself
Experiment: SEC; gel filtration of a single MBP fusion protein (self-association); HiLoad 200, 25 mM Bis-Tris pH 8.0, 150 mM NaCl

Protein	stoichiometry N
B1	4
B2	2
